Source: patent publication US5976875A, “Diacylglycerol kinase isoforms epsilon and zeta and methods of use thereof” (priority 1997, dated 1999)
Read-outs that look alike come from different tables or passages of the source.

Tests used:
[1] = biological target: protein kinase M (PKM), catalytic fragment of mixed rat brain PKC isozymes; assay: Inhibition of PKM phosphorylation of histone IIIS; format: biochemical; details: histone IIIS as substrate, 10 minute reaction; read-out: half-maximal inhibition of PKM
Protocol: When the inhibitory effects of the DGK A/S peptide were assayed, histone IIIS (final concentration 20 μg/ml or as specified) was used as a substrate for PKM (1:80 dilution of frozen stock) in the reaction mixture described above. The reaction was linear for at least 40 minutes at 30° C.; 10 and 15 minute time points were chosen to evaluate inhibitory effects of the peptide. The peptide was added to the reaction mixture for 10 min at 30° C. in a shaking water bath before the reactions were started by the addition of Mg/ATP; samples were assayed using filter papers (P81, Whatman) and trichloroacetic acid precipitation.

[2] = tested on: protein kinase M (PKM), catalytic fragment of mixed rat brain PKC isozymes; assay: Phosphorylation of peptides by PKM (kinetics); format: biochemical; details: for Km: FIG. 15C
Protocol: Phosphorylation of peptides and proteins--Peptides were phosphorylated by the purified catalytic fragment of mixed rat brain PKC isozymes (protein kinase M; PKM). In all cases involving kinetic measurements, the peptides were phosphorylated by PKM (1:120 dilution of frozen stock solution) at 30° C. All reactions were performed in the linear range of peptide phosphorylation, in an assay mixture containing 40 mM Hepes (pH 7.4), 0.25 mM EGTA, 12.5 mM MgCl2, 75 μM y-[^32 P]ATP, and various concentrations of peptides. In the peptide experiments, the reactions were stopped after 10 minutes by the addition of 1/5 vol of 5×SDS sample buffer, boiled for 5 minutes and then subjected to electrophoresis on 20% acrylamide gels. After the gels were dried, the phosphorylated peptides were localized by autoradiography, excised from the gel, and subjected to Cerenkov scintillation counting.

[3] = biological target: human diacylglycerol kinase ζ (DGKζ) (human)
[4] = tested on: protein kinase M (PKM), catalytic fragment of mixed rat brain PKC isozymes; details: comparison values for MARCKS and MRP synthetic peptides; read-out: S0.5 for phosphorylation by PKM; cited from earlier work
[5] = biological target: DGK peptide, 18 amino acid peptide corresponding to residues 256-273 of DGKζ (human)
[6] = biological target: DGK A/S peptide, the DGK peptide with an alanine substituted for the serine at residue 10 (human)
DGK.zeta.-2 = biological target: T1, DGK.zeta.-2 (Homo sapiens, UniProt Q13574); assay: DGK activity assay, homogenates of DGK.zeta.-2-transfected COS-7 cells; format: biochemical
T1 construct: the DGK.zeta.-2 cDNA was subcloned into an expression vector and transfected into COS-7 cells; expressed in transfected cells; host or cells: COS-7
T1 sequence (Q13574 1-1117 isoform Q13574-1 Q21R/L159V/L166C/L167C): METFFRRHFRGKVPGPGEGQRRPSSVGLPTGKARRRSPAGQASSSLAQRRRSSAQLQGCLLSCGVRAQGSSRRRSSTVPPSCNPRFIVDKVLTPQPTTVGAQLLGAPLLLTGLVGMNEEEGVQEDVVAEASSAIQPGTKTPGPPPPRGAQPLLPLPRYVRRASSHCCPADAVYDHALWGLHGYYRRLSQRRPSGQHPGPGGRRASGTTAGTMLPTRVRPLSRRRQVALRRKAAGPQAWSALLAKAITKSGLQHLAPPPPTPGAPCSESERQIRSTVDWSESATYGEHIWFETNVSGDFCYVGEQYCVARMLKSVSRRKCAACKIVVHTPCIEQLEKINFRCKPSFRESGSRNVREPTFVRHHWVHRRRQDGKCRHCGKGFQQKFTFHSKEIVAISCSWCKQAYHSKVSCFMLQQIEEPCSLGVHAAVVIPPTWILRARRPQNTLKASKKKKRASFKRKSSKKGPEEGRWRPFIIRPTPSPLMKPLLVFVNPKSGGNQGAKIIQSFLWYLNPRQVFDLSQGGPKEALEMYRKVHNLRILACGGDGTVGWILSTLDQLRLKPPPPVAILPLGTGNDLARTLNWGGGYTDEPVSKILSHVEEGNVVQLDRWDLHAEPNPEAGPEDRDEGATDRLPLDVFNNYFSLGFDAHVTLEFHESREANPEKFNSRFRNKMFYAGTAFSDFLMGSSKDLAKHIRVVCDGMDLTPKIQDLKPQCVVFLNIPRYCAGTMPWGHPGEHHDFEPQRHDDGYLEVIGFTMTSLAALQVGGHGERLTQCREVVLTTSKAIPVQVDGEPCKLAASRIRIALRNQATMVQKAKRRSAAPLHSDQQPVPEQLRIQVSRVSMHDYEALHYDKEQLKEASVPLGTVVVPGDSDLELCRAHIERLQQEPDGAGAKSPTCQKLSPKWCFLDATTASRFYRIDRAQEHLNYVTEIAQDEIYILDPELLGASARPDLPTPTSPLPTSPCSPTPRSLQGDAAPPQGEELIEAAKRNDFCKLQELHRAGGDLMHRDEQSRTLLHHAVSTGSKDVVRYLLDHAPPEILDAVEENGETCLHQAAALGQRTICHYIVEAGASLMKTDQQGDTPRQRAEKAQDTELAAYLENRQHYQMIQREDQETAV
Protocol: DAG Kinase Assay--Cell homogenates were sonicated twice with 5 watts for 5 at 4° C. The protein concentration of each cell homogenate was measured following trichloracetic acid precipitation utilizing the BCA protein assay reagent (Pierce). Each assay contained 50 mM MOPS, pH 7.2, 100 mM NaCl, 20 mM MgCl2, 1 mM EGTA, 1 mM dithiothreitol, 2 mM 1,2-dieleoyl-an-glycerol, 3.5 mM phosphatidylserine, 75 mM octyl-β-glucopyranoside, 500 μM [γ^32 ]ATP, and 0-20 μg of cell homogenate in a volume of 200 μl. For substrate specificity experiments, various diacylglycerol species were substituted for 1,2-dioleoyl-an-glycerol. The reactions were initiated by the addition of ATP (20-30 μCi/μmol), were incubated for 10 min. At 24° C., and were terminated by the addition of 200 μl of 1% perchloric acid. […] Fifty μl of each sample were counted directly by liquid acintillation spectrometry, and the remainder was applied to a 20×20 cm Silica 60A thin layer chromatography plate (Whatman). […] The region containing phosphatidic acid (as indicated by radiolabeled standards) and the remaining areas of each lane were scraped separately, and the radioactivity was estimated by liquid scintillation spectrometry. The amount of phosphatidic acid formed per reaction was calculated as [2(direct count)(PA cpm)(total lane cpm)]×[mole ATP/cpm]. […]

[7] = biological target: protein kinase M (PKM), purified catalytic fragment of mixed rat brain PKC isozymes (rat)

DGK(A/S) peptide: same peptide with an alanine substituted for the serine at residue 10 (SEQ ID NO: 16) (KASKKKKRAAFKRKSSKK)
IC50 [1]: ~800 nM | rate of phosphorylation relative to native peptide ([2]; 0.2 mM peptide, identical conditions): approximately 1/6 | Km ([2]; read-out: Km of possible second, still lower affinity site): > 800 µM | Km ([2]; initial portion of the rectangular hyperbola, read-out: Km as substrate for PKM): ~50 µM

human protein kinase C γ (PKCγ) (from UniProt P05129) (enzyme)
nuclear localization of DGKζ by subcellular fractionation and immunoblotting [3]: > 50%

MARCKS: MARCKS synthetic peptide phosphorylated by PKM (KASKKKKRASFKRKSSKK)
Km [4]: 20 nM

protein kinase M (PKM), purified catalytic fragment of mixed rat brain PKC isozymes (pool or library)
Km of phosphorylation of the peptide by PKM [5]: 500 nM | Km of a possible second phosphorylation site [6]: > 800 µM | Km of phosphorylation of the peptide by PKM [6]: 50 µM

DGK.zeta.-2: alternatively spliced muscle form of DGK.zeta., 1,117 amino acid protein (SEQ ID NO: 6)
DGK activity (DGK.zeta.-2; 1,2-dicapryl-sn-glycerol substrate, typical experiment, FIG. 21): 6.8 nmol/mg/min | DAG kinase activity relative to vector alone (DGK.zeta.-2; transfected COS-7 homogenates): more than 50 fold

KASKKKKRAAFKRKSSKK [DGK A/S peptide, the DGK peptide with an alanine substituted for the serine at residue 10]
half-maximal inhibition of PKM phosphorylation of histone IIIS [7]: 800 nM
